Assay results: paper doi:10.1101/2022.10.06.510747
Where two headings read alike, the source gives them in different places.

How the values were obtained:
[1] = molecular target: PfTGS1-NLS-GFP (bi-partite NLS of P. falciparum trimethyl guanosine synthase 1 fused to GFP) (Plasmodium falciparum); assay: SPR
[2] = molecular target: ΔIBB-TgImpα (T. gondii importin α lacking the IBB domain, amino acids 92-545, C-terminal His-tag) (Toxoplasma gondii); assay: pull-down
[3] = molecular target: PfTGS1-NLS-GFP (bi-partite NLS of P. falciparum trimethyl guanosine synthase 1 fused to GFP) (Plasmodium falciparum); assay: SPR; remark: listed apart in the source
SV40 T-ag-NLS-GFP (SV40) = assay: AlphaScreen or HTRF

Substance	Kd [1] [nM]	also measured
AAA-TgImpα (KKR/AAA mutant of the third basic cluster) (natural protein)	280	
KRR-TgImpα (KKR/KRR mutant of the third basic cluster) (natural protein)	1450	
MmHinge-TgImpα (TgImpα chimera containing the hinge motif from MmImpα2) (from UniProt P52293 57-70)	5.1	
PfTGS1-NLS-GFP (bi-partite NLS of P. falciparum trimethyl guanosine synthase 1 fused to GFP) (domain or fragment)		relative band intensity (pulled down by ΔIBB-TgImpα over WT-TgImpα) [2]: 4.6
SKR-TgImpα (KKR/SKR mutant of the third basic cluster) (natural protein)	410	
WT-TgImpα (full-length Toxoplasma gondii importin α with C-terminal His-tag) (natural protein)	3.26	Kd [3]: 830 nM
WT-TgImpα with a C-terminal GST tag (from UniProt A0A125YID0 1-545) (natural protein)		Kd (SV40 T-ag-NLS-GFP (SV40)): 3.5 nM
pre-dimerized TgImpα/MmImpβ1 (from UniProt P70168 1-876) (complex)		Kd (SV40 T-ag-NLS-GFP (SV40)): 1.5 nM
ΔIBB-TgImpα (T. gondii importin α lacking the IBB domain, amino acids 92-545, C-terminal His-tag) (domain or fragment)		Kd [3]: 240 nM
